The record followed here is the nanobody polyreactivity screen of Harvey et al. (2022).

The data set is described as follows: yeast display, Sf9 membrane polyspecificity reagent, FACS + sequencing; frameworks hold sequencing errors. The method, boiled down: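 Galactose induction of a Saccharomyces cerevisiae BJ5465 synthetic nanobody display library ran 36–48 hours. The cells were then stained for 1 hour at 4 °C with 10% biotinylated, detergent-solubilized Sf9 membrane reagent, pulled down on streptavidin microbeads and FACS-sorted into low and high (top ~1%) gates on expression and reagent-binding fluorescence. Labels for polyreactivity follow the gate of origin.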
As to “KVQLVESGGGLVQAGGSLRLSCAASGFTFYGNAMGWYRQAPGKERELVATIRYRGGRTYYADSVKGRFTISRDNAKNTVYLQMNSLKPEDTAVYYCAARSVFLMWGQGTQVTVSS”, the “polyreactivity (PSR sort gate)” value is reported as “high polyreactivity”. In the case of “KVQLVESGGGLVQAGGSLRLSCAASGITSSYSAMVWYRQAPGKERELVAAITSSGGSTYYADSVKGRFTISRDNAKNTVYLQMNSLKPEVTAVYYCAARIGQYKAHTRINQYYIRYYWGQGTQVSVSS”, the “polyreactivity (PSR sort gate)” value is reported as “low polyreactivity”. The entry for “KVQLVESGGGLVQAGGSLRLSCAASGLIFYDNMGWYRQAPGKERELVAAISSSGGSTSYADSVKGRFTISRDNAKITVYLQMNSLKPEDTAVYYFAADSYPAYLGFVGFDYWGQGTQVTVSS” is “low polyreactivity”; for “KVQLVESGGGLVQAGGSLRLSCAASGLILWYYAMGWAIQAPGKERELVAAISRYGASTYYADSVKGRFTISRDNAKNTDYLQLNSLKPEDTAVYYCATGSSRYRHQRDYLGQGTQVTVSS” it is “high polyreactivity”. The entry for “KVQLVESGGGLVQAGGSLRLSCAASGRIFYSNVMGWYRQATGKERELVAAISGRTGGTYYADSVKGRFTISRDNAKNTVYLQMNSLKPEDTAVYYCAARFIYYYGSGPDDYWGQGTQVTVSS” is “low polyreactivity”; for “KVQLVESGGGLVQAGGSLRLSCAASGRTFESYAMGWYRQAPGKERELVAAITWSGGDTYYADSVKGRFTISRDNAKNTVYLQMNSLKPEDTAVYYCAKEQGLYSVSPYDYWGLGTQVTVSS” it is “low polyreactivity”; for “KVQLVESGGGLVQAGGSLRLSCAASGSIFSFYTKGWYRQAPGKERELVAAINWSGSRTYYADSVKGRFTISRDNAKNTVYLQMNSLKPVDTAVYYCAAYLWFYVRYEYWGQGTQVTVSS” it is “high polyreactivity”. The entry for “KVQLVESGGGLVQAGGSLRLSCAASGSIFWFYAMGWYRQAPGKEREFVATISRSCGSTYYADSVKGRFTISRDNAKNTDYLQMNSLKPEDTAVYYCIARGPRSHRYDYWGQGTQVNVSS” is “high polyreactivity”; for “KVQLVESGGGLVQAGGSLRLSCAASGSTFYYYAMGWYSQAPGKERELVAAITSSTGSTYYADSVKGRFTISRDNAKNTVYLQMNSLKPVDTAVYYCAATDPYAYYWGQGTKVTVSS” it is “high polyreactivity”. Take “KVQLVESGGGLVQAGGSLRLSCAASGSTISGYAMGWYRQAPGKERELVAAITIGGGTYYADSVKGRFPISRDNAKNTVYLQMNSLKPEDTGVYYCNAYRRKLWYPTGMYWGQGTQVTVSW”: the “polyreactivity (PSR sort gate)” value is “high polyreactivity”.

For the sequence “KVQLVESGGGLVQEGGSLPLSCAASGRTFDYNTMGWYRQAPGKERELVAAISSRGDSTYYADSVKGLFTISRDKAKNTVYLQMNSLNPEDTAVYYCAARYYPGRGFGYGYWGQGTQVTVSS”, the “polyreactivity (PSR sort gate)” value is “high polyreactivity”. Take “KVQLVESGGGLVQPGGSLRLSCASSGQTFTTNEMGWNRQAHGKERDLLAAISRRGSRTYYADSVKGRFTISRDNAKNSVFLQMNSLKPEDTAVYYCNALTGSFKTYSFDYWGQGTQVTVSS”: the “polyreactivity (PSR sort gate)” value is recorded as “high polyreactivity”. As to “KVQLVESGGGLVQSGVSLRLSCAASGYTFEYNAMGWYIQAPGKEREFVSTITASGDSTYYAVSVKGRFTMSRDNAKNTVYFQMNSLKPEDTAVYYCAVDCAYLDDYSFTWDDYWGQGTQVTVSS”, the “polyreactivity (PSR sort gate)” value is “low polyreactivity”.

For the sequence “KVQLVESVGGLVQAGGSLRLSCAASGFTFCRNTMGWYRQAPGKEREFVAAITVTGGSTYYADSVKGRFTISRDNAKNTVYLQMNSLKPEDTAVYYCAAGWTSAYVNYDYWGQGTQVTVSS”, the “polyreactivity (PSR sort gate)” value is “low polyreactivity”. As to “KVQLVETGGGLVQAGGSLRLSCAASGRTFWGYAKGWYRQAPGKEREFVAAISCGGRTNYADSVKGRFTISRDNAKNTVYLQLNSLKPEDSAVYYCATVSGYGYYYWGQGTQVTVSS”, the “polyreactivity (PSR sort gate)” value is listed as “low polyreactivity”.

Turning to “KVQVVESGGGLVQAGGSLRLSCAASGSTFYYNAMGWYTQAPGKERELVAAITGSGTGTNYADSVKGRFTISRDNAKNTVYLQMNSLKPEDTAVYYCAADYVWRGDPINSYLSWYVYWGQGTQVTVSS”, the “polyreactivity (PSR sort gate)” value is on record as “low polyreactivity”. “LVQHVESGGGLVQAGGSLRLNCAASGRTFKPYAMGWYIQSPGKERELVAAISTRGGSTYYADSVKGRFTISRDNAKNSVFLQMNSLKPEDTALFYCAATQPGRDYDYWGQGTQVTVSS”: the “polyreactivity (PSR sort gate)” value was “low polyreactivity”. The entry for “LVQLQESGGCLVLAGGGLRLSCAASGNIFTYVIMGWYRQPPGKERELVAAITYGTITNYADSVKGPFTISRDNAKNTVYMQMNCLKPEDTAVYHCAVQSPRIEPRLYYWGQGTQVTVSS” is “high polyreactivity”; for “LVQLQESGGGLVQAGGSLRLSCAASGTNSPGGYMGWYRKAPGKERELVASINVGGSTNYADSVKGRFTISRDNAKNTVYLQMNSLKPEDNAVYFCAVWGRNRLQLSYWGQGTQVTVSS” it is “low polyreactivity”. The entry for “LVQLQESGGGLVQPGGRLRLSCAASGTISPGGYMGWYRQAPGKERELVASINVGGRTNYADSVKGRFTISRDNAKNTVYLQMNSLKPEDNAVSYCAVWGRNRLQLSYWGQGTQVTVSS” is “low polyreactivity”; for “LVQLVESGGGLVQAGGSLRLSCAASGAIFYQDAQGCYRQAPGKERELVAAISKNGRSTYYADSVKGRFTISRDNAKNTVYLQMNSLKPEATAVYYCAARVLKGYYWGQGTQVTVSS” it is “high polyreactivity”; for “LVQLVESGGGLVQAGGSLRLSCAASGRIIPPNAMGWYRQAPGTERELVATITWGVGSTYYADSVKGRFTISRDNAKNTVYLQMNSLKPEDTAVYYCYARRFRPYGFYYWGQGTQVTVSS” it is “high polyreactivity”. The same measure for “LVQLVESGGGLVQAGGSLRLSCAASGRTFPGYAMGGYSQAPGKERELVASINFRGGGTYADSVKGRFTISRDNAKNTVYLLMNSLKPEDTAVYYCAAEYFWGKRRFGYWGQGTQVTVSS”: “high polyreactivity”. With “LVQLVESGGGLVQAGGSLRLSCAASGSIFPPYAMGWYRQAPGKERELVAARSNGGSTNYAYAVKGRFTISRDNPNYTVYLQMNSLIPEDTAVYYCVARQYYLGWFPYWRIFDYWGQGTQVTVSS”, the “polyreactivity (PSR sort gate)” value is “high polyreactivity”. For the sequence “LVQLVESGGGLVQAGGSLRLSCAASGSIFSVYAMGWYRQAPGKERELVAAITWRGGNTYYADSVKGRFTLSRDNAKNTVYLQMNSLKPEDTAVYYCNRVYRQRLGRDYWGQGTQVTVSS”, the “polyreactivity (PSR sort gate)” value is given as “high polyreactivity”. Turning to “LVQLVESGGGLVQAGGSLRLSCAASGSTFIPYAMGWYRQAPGKERELVAAIRGGDGSTYYADSVKGRFTISRDNAKNTVYLQMNSLKPEDTAVYYCAADTVITAYFYRFWRYNYWGQGTQVTVSS”, the “polyreactivity (PSR sort gate)” value is reported as “low polyreactivity”. On to “LVQLVESGGGLVQAGGSLRVSCAASGLIIYDNAMGGYRQAPGKEREVVATISSGGRTYYADSVKGRFTISRDNAKNTVYLQMNSLKPEDTAVYYCAVDPGYSWYAQYDYWGQGTQVTVSS”, for which the “polyreactivity (PSR sort gate)” value was “low polyreactivity”. The entry for “LVQVVESGGGLVQAGCSLRLSCAASGRTFGVYAMGWYRQAPGKEWELVASISRSGGSTYYADSLKGRFTISRDNAKNTVYLQMNSLIPEDTAVYYCAAVYKRGMDYWGQGTQVTVSS” is “high polyreactivity”; for “PLQLVESGGGLVQAGGSLRLSCAASGRIFGTYAMGWYRQAPGKERELVAAITLSDGSTYYADSVKGRFTISRDNAKNTVYLEMNSLIPDDTAVYYCAAVVDRFHPGLYEYWGQGTQVTVSS” it is “low polyreactivity”; for “PLQLVESGGGLVQAGGSLRLSCAASGTIFVQTDRGWYRQAPGKERELVAAISSGSSTNYADSVNGRFTISRDNAKNTVYLQMNSLKPEDSAAYYCAVTSPYSQGYSYWGADSRDYWGQGTQVTVSS” it is “low polyreactivity”. Turning to “PVQIVESGGVLDQAGGSLRLSCAASGSIFTRNTMGWYRQAPRKERELVAAISQRGGSTYYADSVKGRFTISRDNAKNTVYLQMNSLIPEDTAVYFCAADFSFGYYWYGYWGQGTQVTVSS”, the “polyreactivity (PSR sort gate)” value is reported as “high polyreactivity”.

“PVQLQESGGGLMQAGGNLRLSCAASGYISTHYDMDWYRQAPGKERELVARIDDGAITNYADSVKGRFTISRDNAKNTVYLQMNSLKPEDTAVYYCAVYSGDDYYHDYWGQGTQVTVSS”: the “polyreactivity (PSR sort gate)” value was “low polyreactivity”.

Turning to “PVQLVDSGGGLVQAGGSLRLSCGASGRTFRKYGIGWYRQAAGKERELVAGISRSGGTTYYADTVKGRFTISRDTAKNTVYLQMNSLKPEDTAVYYCAKRTGPSGEDYWGQGTQVTVSS”, the “polyreactivity (PSR sort gate)” value is on record as “high polyreactivity”. Take “PVQLVESGGGLGQAGGSLRLSCAASGSTFLYSAMGWYRPAPGKERELVAGISASGGSSYYADSVKGRFTISRDYAKNTVYLQMNSLKPEDTAVYYCNATRVVIRHSYDYWGQGTQVTVSS”: the “polyreactivity (PSR sort gate)” value is given as “high polyreactivity”. The same measure for “PVQLVESGGGLVQAGGRLLLICAASGSIFTPKAMGWYRQAPGKERELVAAITSRGGSTYYADSVKGRFTISRDNAKNTFYLQMNSLKPEDTAVYYCASKPHSSKYDYWGQGTQVTVSS”: “low polyreactivity”; for “PVQLVESGGGLVQAGGSHRLSCAASGITFGVYPMGWYRQAAGKERELVAAISRRGASTYYADSVKGRFTISRDKAKNSVYLQMNSLKPEDTAVYYCAAYLARRQYDYWGQGTQVTVSS”: “high polyreactivity”; for “PVQLVESGGGLVQAGGSLLLSCAASGRIFSRNAMGWNIQAPGKERELVAAISRSGTSTYYADSVKGRFTSSRDNAKNTVYLQMNSLKPEETAVYYCAADYPAVISIRRYDYWGQGTQLTVSS”: “low polyreactivity”. The entry for “PVQLVESGGGLVQAGGSLRISCAASGSIFRVNAMGWYRQAPGKERELVAAITTNGGSTYYADSVKGRFTISRDNAKNTVYLQMNSLKPEDTAVYYCAADYSLPWSWLYEYWGQGTQVTVSS” is “low polyreactivity”; for “PVQLVESGGGLVQAGGSLRLICAASGRIFLPYAMGWYRQAPGKERELVASITRRGGTTYYADSVKGRFTLSRDYAKNTDYLQLNSLKTEDTSVYYCAADSGYRLQSYGYWGQGTQVTVSS” it is “high polyreactivity”. The same measure for “PVQLVESGGGLVQAGGSLRLICAASGSIFYQYTMGWYRQAPGKERELVATISWSDVSTYYADSVKGRFTISRENAQNPVYLQMNSLKPEDTSVYYCAALYSGWDRYYGYDYWGQGTQVTVSS”: “low polyreactivity”.

Turning to “PVQLVESGGGLVQAGGSLRLSCAACGYTFQVYAMGWYRQAPGKERELVASIRWRGGRTYYADSVKGRFTISRDNAKNTVYLKLNSLKPADTSVYYCAARQFVIYPTYYTYYYWGQGTQVTVSS”, the “polyreactivity (PSR sort gate)” value is “high polyreactivity”.
